The record followed here is patent publication US20160137713A1 (HANALL BIOPHARMA, published 2016).

The assay deals with T1, soluble human FcRn (human, UniProt P55899 24-297; P61769 21-119).
T1 construct: extracellular domain;mature; Non-covalent heterodimer secreted by 293 cells, purified on IgG Sepharose; also called shFcRn; soluble FcRn
The assay can be described thus: SPR, shFcRn immobilised, pH 7.4. As for the experimental part: Measurement of the binding ability of antibody by SPR was performed by immobilizing shFcRn as a ligand onto a Proteon GLC chip (Bio-Rad) and measuring affinity.
The analysis of ligand and analyte was performed using a Proteon GLC chip, and the interaction was analyzed at a pH of 6.0 and a pH of 7.4. Immobilization of the ligand was activated by injecting a 1:1 mixture of 1×EDAC (EDC) and 1× Surfo-NHS for 5 minutes. shFcRn was diluted in 10 mM sodium acetate (pH 4.5) at a concentration of 25 μg/ml and added to the ligand at a flow rate of 30 μl/min for 5 minutes. […] The analyte antibody was allowed to flow on the immobilized chip at a flow rate of 30 μl/min. […] The association time of the analyte antibody was 240 seconds, and the dissociation time was 600 seconds. Regeneration of the chip was performed by injecting 10 mM glycine (pH 2.5) at a flow rate of 100 μl/min for 18 seconds. Based on sensorgrams resulting from six concentrations of the analyte, kinetics analysis was performed using Proteon XPR36 software.
A general note: Surface plasmon resonance follows binding to a sensor surface in real time, without labels.

T1 sequence (P55899 24-297, chain 1 of 2): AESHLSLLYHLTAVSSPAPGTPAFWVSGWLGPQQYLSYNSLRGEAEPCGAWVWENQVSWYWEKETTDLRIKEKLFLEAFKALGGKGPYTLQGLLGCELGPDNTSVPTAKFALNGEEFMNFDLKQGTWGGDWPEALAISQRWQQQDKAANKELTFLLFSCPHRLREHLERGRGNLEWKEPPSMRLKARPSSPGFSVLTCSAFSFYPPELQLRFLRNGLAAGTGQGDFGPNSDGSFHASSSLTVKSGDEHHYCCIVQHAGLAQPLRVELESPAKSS
T1 sequence (P61769 21-119, chain 2 of 2): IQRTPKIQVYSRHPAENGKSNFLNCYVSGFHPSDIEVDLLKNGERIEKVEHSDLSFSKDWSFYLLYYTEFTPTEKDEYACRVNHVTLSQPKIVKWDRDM

B1: HL161-10E (antibody, V domains shown)
VH: QVQLVESGGGLVQPGGSLRLSCAASGFRFSNFAMTWVRQAPGKGLEWVSTLSGSGGSIHHADSVKGRFTISRDNSKNTLYLQMNSLRAEDTAVYYCAKGPLRGQPAYLDPWGQGTLVTVSS
VL: SYELTQPLSVSMSPGQTARITCSGDALSKQYASWYQLKPGQAPVVVMYKDTERPSGIPDRFSGSSSGTTVTLTISGVQAEDEADYYCQSITDKSGTDVIFGGGTKLTVL
notes: Whole human IgG from pNATAB vectors
Broadly, the kon is the rate constant with which the complex forms. Read a low kon as slow association. Molecule B1 came in with a kon of 310000 M⁻¹ s⁻¹.
